Test results: patent publication US20180282386A1 (REGENTS OF THE UNIVERSITY OF MINNESOTA, published 2018)

Legend:
CD133 on Caco-2 cells = target: T1, CD133 on Caco-2 cells (human, UniProt O43490 20-865); test: flow cytometry on Caco-2 cells, competition with FITC-labeled 1615133 TriKE
T1 construct: whole, on cells; also called prominin-1
T1 sequence (looked up): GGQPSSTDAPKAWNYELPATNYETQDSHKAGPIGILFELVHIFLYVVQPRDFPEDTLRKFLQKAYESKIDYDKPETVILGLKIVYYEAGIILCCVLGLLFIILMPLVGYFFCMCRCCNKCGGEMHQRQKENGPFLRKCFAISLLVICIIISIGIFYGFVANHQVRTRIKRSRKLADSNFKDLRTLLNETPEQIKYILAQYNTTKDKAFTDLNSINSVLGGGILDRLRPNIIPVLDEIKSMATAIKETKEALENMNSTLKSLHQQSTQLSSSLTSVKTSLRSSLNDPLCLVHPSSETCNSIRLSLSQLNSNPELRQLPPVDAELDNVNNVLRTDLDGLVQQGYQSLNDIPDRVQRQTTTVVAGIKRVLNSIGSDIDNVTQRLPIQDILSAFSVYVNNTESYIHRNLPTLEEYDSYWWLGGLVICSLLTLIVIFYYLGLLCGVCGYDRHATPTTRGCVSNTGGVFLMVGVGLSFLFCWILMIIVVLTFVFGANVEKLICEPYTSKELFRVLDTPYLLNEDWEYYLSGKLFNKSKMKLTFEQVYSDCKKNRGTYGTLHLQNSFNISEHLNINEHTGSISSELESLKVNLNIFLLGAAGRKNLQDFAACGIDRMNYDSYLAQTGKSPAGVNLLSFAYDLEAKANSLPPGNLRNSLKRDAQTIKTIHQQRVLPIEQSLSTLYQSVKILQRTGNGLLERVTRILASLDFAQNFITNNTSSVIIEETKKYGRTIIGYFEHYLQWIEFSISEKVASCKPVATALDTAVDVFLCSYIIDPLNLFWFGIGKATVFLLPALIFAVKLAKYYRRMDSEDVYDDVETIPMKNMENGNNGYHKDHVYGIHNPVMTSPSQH

[1] = target: EpCAM on HT-29 cells (human) (UniProt P16422); test: flow cytometry, direct binding to CD33- EpCAM+ HT-29 cells (specificity control), 4 µg drug
EpCAM on HT-29 cells (human), sequence (P16422 24-314): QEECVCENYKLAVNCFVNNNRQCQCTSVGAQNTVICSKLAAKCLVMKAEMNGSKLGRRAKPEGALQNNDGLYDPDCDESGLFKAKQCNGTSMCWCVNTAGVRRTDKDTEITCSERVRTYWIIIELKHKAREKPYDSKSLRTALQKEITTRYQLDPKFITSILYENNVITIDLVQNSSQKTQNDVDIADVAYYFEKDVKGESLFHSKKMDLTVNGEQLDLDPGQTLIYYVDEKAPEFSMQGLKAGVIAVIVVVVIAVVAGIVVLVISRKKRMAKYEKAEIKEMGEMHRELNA

B1: anti-CD133 scFv (scFv)
scFv: MDIVLSQSPAIMSASPGEKVTISCSASSSVSYMYWYQQKPGSSPKPWIYRTSNLASGVPARFSGSGSGTSYSLTISSMEAEDAATYYCQQYHSYPPTFGAGTKLELKSSGGGGSGGGGGGSSRSSLEVKLVESGPELKKPGETVKISCKASGYTFTDYSMHWVNQAPGKGLKWMGWINTETGEPSYADDFKGRFAFSLETSASTAYLQINNLKNEDTATYFCATDYGDYFDYWGQGTTLTVSS
notes: also called monomeric CD133 scFv; anti-CD133 scFv from clone 7
- binding result (CD133 on Caco-2 cells): binds

B2: 1633 bispecific killer engager (BiKE) (bispecific antibody)
chain: MEVQLVESGGGVVRPGGSLRLSCAASGFTFDDYGMSWVRQAPGKGLEWVSGINWNGGSTGYADSVKGRFTISRDNAKNSLYLQMNSLRAEDTAVYYCARGRSLLFDYWGQGTLVTVSRGGGGSGGGGSGGGGSSELTQDPAVSVALGQTVRITCQGDSLRSYYASWYQQKPGQAPVLVIYGKNNRPSGIPDRFSGSSSGNTASLTITGAQAEDEADYYCNSRDSSGNHVVFGGGTKLTVLPSGQAGAAASESLFVSNHAYQVQLVQSGAEVKKPGSSVKVSCKASGYTFTDYNMHWVRQAPGQGLEWIGYIYPYNGGTGYNQKFKSKATITADESTNTAYMELSSLRSEDTAVYYCARGRPAMDYWGQGTLVTVSSGGGGSGGGGSGGGGSDIQMTQSPSSLSASVGDRVTITCRASESVDNYGISFMNWFQQKPGKAPKLLIYAASNQGSGVPSRFSGSGSGTDFTLTISSLQPDDFATYYCQQSKEVPWTFGQGTKVEIK
modifications: FITC label (site not stated)
- % Positive Cells [1]: 1%
